This assay has as its target human PSMA (prostate-specific membrane antigen) expressed on LNCaP cells (human) (UniProt Q04609). The assay can be described thus: flow cytometry on LNCaP cells, isotype control 10μg/mL, 4℃.

Chain of human PSMA (prostate-specific membrane antigen) expressed on LNCaP cells (human) (Q04609 whole entry): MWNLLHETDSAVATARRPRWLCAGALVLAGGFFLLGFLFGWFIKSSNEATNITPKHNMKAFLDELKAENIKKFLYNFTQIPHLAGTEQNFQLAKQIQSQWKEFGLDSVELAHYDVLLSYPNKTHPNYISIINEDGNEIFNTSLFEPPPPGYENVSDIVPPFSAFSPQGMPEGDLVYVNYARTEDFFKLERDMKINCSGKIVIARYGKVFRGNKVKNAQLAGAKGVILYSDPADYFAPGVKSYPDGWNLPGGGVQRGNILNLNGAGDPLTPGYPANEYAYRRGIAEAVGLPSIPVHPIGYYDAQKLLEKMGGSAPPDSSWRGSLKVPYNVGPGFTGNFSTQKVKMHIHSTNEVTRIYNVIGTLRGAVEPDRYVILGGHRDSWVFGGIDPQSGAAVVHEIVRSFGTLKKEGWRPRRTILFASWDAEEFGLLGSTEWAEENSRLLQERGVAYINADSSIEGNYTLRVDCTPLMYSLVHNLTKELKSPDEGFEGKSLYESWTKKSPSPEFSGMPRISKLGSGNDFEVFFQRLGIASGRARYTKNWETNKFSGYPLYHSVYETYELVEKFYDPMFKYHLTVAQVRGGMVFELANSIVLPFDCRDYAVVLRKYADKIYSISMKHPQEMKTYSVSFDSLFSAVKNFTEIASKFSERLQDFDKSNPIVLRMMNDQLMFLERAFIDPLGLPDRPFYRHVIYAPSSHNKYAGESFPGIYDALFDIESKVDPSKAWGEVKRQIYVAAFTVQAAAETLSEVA

With “Mouse IgG Isotype Control (ThermoFisher, cat.No.02-6502) (antibody)”, the Mean FL was determined as 3440 Mean FL.

These data come from KR20230078152A.
